# Laboratory results taken from US7452690.
# Tested on: PL-FXa-b2AR fusion protein (ED-FXa cleavage site-beta2-adrenergic receptor) expressed on transiently transfected HEK293 cells
substance,measurement,value
Factor Xa,EFC activity as relative luminescent units (RLU),a difference in about 30000 RLUs was observed over a range in concentration of FXa of about 10^-3 to 10^1 µg/mL
same,"readings (chemiluminescence, β-galactosidase enzyme fragment complementation after cleavage)",the transiently infected cells showed an increase in the readings from 0.01 ng/well to 1000 ng/well of Factor Xa
